According to patent US20210347865A1 (STATEN BIOTECHNOLOGY B V, published 2021):

Legend:
[1] = target: T1, recombinant cynomolgus ApoC3 (cynomolgus monkey, UniProt P18659 21-99, biotinylated in the captured-antigen assays (Tables 6 and 8); sites not stated); experiment: SPR, biotinylated antigen captured on SA chip, scFv periplasmic extract injected, pH 7.4
T1 construct: No cleavage site is stated, so none is applied; also called rcyApoC3; bio-rcyApoC3

native human ApoC3 = target: T2, native human ApoC3 (human, UniProt P02656 21-99, biotinylated in the captured-antigen assays (Tables 6 and 8); sites not stated); experiment: as above
T2 construct: also called nhuApoC3; native huApoC3
T2 sequence (P02656 21-99): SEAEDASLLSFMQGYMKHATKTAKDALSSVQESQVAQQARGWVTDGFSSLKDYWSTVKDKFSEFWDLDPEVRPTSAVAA

T1 sequence (P18659 21-99 limits assumed): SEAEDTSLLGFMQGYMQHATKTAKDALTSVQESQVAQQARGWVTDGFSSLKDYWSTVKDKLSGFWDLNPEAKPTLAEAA

Binder	R0 [1]	koff [1]	R0 (native human ApoC3)	koff (native human ApoC3)
29B03 scFv (scFv, part only; not given: scFv linker, domain order, c-myc tag, V domains shown, not shown: another chain or arm of the molecule; small tags and cut ends) VH: QLQLVESGGGLVQPGGSLRLSCAASGFTFGTYSMRWVRQVPRKALEWVSSISTDGGGTAYRDSVKGRFTISRDNAKNTLYLQMNNLKPEDTAIYYCVIAGYSDWGQGTQVTVSS VL: DVVLTQTPGSLSVVPGESASISCKAGQNLVHPDGKTYLYWLLQKPGQSPQRLIYQVSNRDSGVPDRFTGSGSGTDFTLKISGVKVEDAGVYYCAQGTYWPKTFGQGTKLEIK	122 RU	0.0418 s⁻¹	930 RU	0.000572 s⁻¹
29A06 scFv (scFv, part only; not given: scFv linker, domain order, c-myc tag, V domains shown, not shown: another chain or arm of the molecule; small tags and cut ends) VH: QLQLVESGGGLVQPGGSLRLSCAASGFTFGTYSMRWVRQVPRKALEWVSSISTDGGGTAYRDSVKGRFTISRDNAKNTLYLQMNNLKPEDTAIYYCVIAGYSDWGQGTQVTVSS VL: DVVLTQTPGSLSVVPGESASISCKASQNLVHSNGKTYLYWLLQKPGQSPQRLIYQVSNRGSEVPDRFTGSGSGTDFTLKISGVKAEDAGVYYCAQGTYWPKTFGQGTKLEIK	125 RU	0.0406 s⁻¹	1010 RU	0.00162 s⁻¹
29A05 scFv (scFv, part only; not given: scFv linker, domain order, c-myc tag, V domains shown, not shown: another chain or arm of the molecule; small tags and cut ends) VH: QLQLVESGGGLVQPGGSLRLSCAASGFTFGTYSMRWVRQVPRKALEWVSSISTDGGGTAYRDSVKGRFTISRDNAKNTLYLQMNNLKPEDTAIYYCVIAGYSDWGQGTQVTVSS VL: DVVLTQTPGSLSVVPGESASISCKASQSLVYSDGKTYLYWLLQKPGQSPQRLIYQVSNRDSGVPDRFTGSGSGTDFTLKISGVKVEDAGVYYCAQGTYWPKTFGQGTKLEIK	145 RU	0.0146 s⁻¹	545 RU	0.0069 s⁻¹
29G02 scFv (scFv, part only; not given: scFv linker, domain order, c-myc tag, V domains shown, not shown: another chain or arm of the molecule; small tags and cut ends) VH: QLQLVESGGGLVQPGGSLRLSCAASGFTFGTYSMRWVRQVPRKALEWVSSISTDGGGTAYRDSVKGRFTISRDNAKNTLYLQMNNLKPEDTAIYYCVIAGYSDWGQGTQVTVSS VL: DVVLTQTPGSLSVVPGESASISCKATQSLVHIDGKTYLYWLLQKPGQSPQRLIYQVSTRDSGVPDRFTGAGSGAEFTLKISGVKAEDAGVYYCAQDTYSTKTFGQGTKLEIK	102 RU	0.00721 s⁻¹	833 RU	0.00435 s⁻¹
30D10 scFv (scFv, part only; not given: scFv linker, domain order, c-myc tag, V domains shown, not shown: another chain or arm of the molecule; small tags and cut ends) VH: QLQLVESGGGLVQPGGSLRLSCAASGFTFGTYSMRWVRQVPRKALEWVSSISTDGGGTAYRDSVKGRFTISRDNAKNTLYLQMNNLKPEDTAIYYCVIAGYSDWGQGTQVTVSS VL: DVVLTQTPGSLSVVPGESASISCTASQSLRHSDGRTYLYWLRQKPGQSPQRLIKRVSTRDPGVPDRFTGSGSGTDFTLKISGVRAEDAGVYYCAQGTYYPLTFGQGTKVELK		0.0436 s⁻¹	695 RU	0.00123 s⁻¹
29G11 scFv (scFv, part only; not given: scFv linker, domain order, c-myc tag, V domains shown, not shown: another chain or arm of the molecule; small tags and cut ends) VH: QLQLVESGGGLVQPGGSLRLSCAASGFTFGTYSMRWVRQVPRKALEWVSSISTDGGGTAYRDSVKGRFTISRDNAKNTLYLQMNNLKPEDTAIYYCVIAGYSDWGQGTQVTVSS VL: DVVLTQTPGSLSVVPGGSASISCKASQSLVYSDGKTYLYWLRQKPGQSPQRLIYQVSNRPSGVPDRFTGSGSGTDFTLKISGVKAEDAGVYYCAQDTYSTKTFGQGTKLEIK	92.7 RU	0.00714 s⁻¹	809 RU	0.00633 s⁻¹
5E5 WT scFv (scFv, part only; not given: scFv linker, domain order, c-myc tag, V domains shown, not shown: another chain or arm of the molecule; small tags and cut ends) VH: QLQLVESGGGLVQPGGSLRLSCAASGFTFGTYSMRWVRQVPRKALEWVSSISTDGGGTAYRDSVKGRFTISRDNAKNTLYLQMNNLKPEDTAIYYCVIAGYSDWGQGTQVTVSS VL: ATMLTQSPGSLSVVPGESASISCKTSQGLVHSDGKTYFYWFLQKPGQSPQQLIYQVSNRASGVPDRFTGSGSGTDFTLKISGVKAEDAGVYYCAQGTYYPHTFGSGTRLEIK		0.0391 s⁻¹	854 RU	0.000964 s⁻¹
